Laboratory results taken from patent publication US20210024625A1 (published 2021).

T1: PfRH5 from Plasmodium falciparum strain 3D7 (Plasmodium falciparum, UniProt Q8IFM5 25-526)
T1 sequence: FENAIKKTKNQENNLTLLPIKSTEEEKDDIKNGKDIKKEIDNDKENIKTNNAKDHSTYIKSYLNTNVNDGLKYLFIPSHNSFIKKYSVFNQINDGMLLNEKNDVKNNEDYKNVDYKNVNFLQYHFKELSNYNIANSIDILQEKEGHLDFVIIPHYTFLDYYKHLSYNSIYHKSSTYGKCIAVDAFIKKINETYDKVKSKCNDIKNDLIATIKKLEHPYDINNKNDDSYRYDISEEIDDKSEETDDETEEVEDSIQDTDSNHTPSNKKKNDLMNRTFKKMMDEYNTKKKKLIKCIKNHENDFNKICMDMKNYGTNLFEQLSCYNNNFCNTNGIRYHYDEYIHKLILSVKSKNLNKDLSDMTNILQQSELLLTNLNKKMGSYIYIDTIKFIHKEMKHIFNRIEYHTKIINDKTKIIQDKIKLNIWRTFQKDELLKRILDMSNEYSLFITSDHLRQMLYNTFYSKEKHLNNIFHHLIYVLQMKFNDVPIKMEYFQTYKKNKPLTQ

B1: H1H29149P2 (antibody, V domains shown)
VH: QVQLQESGPGLVKPSQTLSLTCTVSGGSISSGGYYWNWIRQHPGKGLEWIGYIYYSGSTYYNPSLKSRVTISVDTSKNQFSLKLGSVTAADTAVYYCARAPPYNWFDYWGQGTLVTVSS
VL: not shown
B2: H1H29138P (antibody, V domains shown)
VH: QVQLVESGGGVVQPGRSLRLSCAASGFTFSTYGMHWVRQAPGKGLEWVAVIWYDGTNKYYADSVKGRFTISRDNSKNTLYLQMISLRAEDTAVYYCARDPSGGDHYYYYGMDVWGQGTTVTVSS
VL: DIQMTQSPSSLSASVGDRITITCQASQDISNYLNWYQQKPGKAPNLLISDASDLETGVPSRFSGSGSGTDFTFTISSLQPEDFATYYCQQYDNIPITFGQGTRLEIKR
B3: H1H29179P2 (antibody, V domains shown)
VH: QVQLQESGPGLVKPSQTLSLTCTVSGGSISSSGYYWSWIRQHPGRGLEWIGYIYYSGSTYYNPSLKSRVTISVDTSKNQFSLKLNSVTAADTAVYYCARVDYGSGSSFDYWGQGTLVTVSS
VL: not shown
B4: H1H29163P2 (antibody, V domains shown)
VH: QVQLVQSGAEVKKPGASVKVSCKTSGYTFTAYYIHWVRQAPGQGLEWMGWINPNNGDTNYALRFQGRVTMTRDMSINTAYMELRGLRSDDTAVYYCARDDLAAAGIGWFDSWGQGTLVTVSS
VL: not shown
B5: H1H29183P2 (antibody, V domains shown)
VH: QVQLVQSGPEVKKPGASVKVSCKASGYTFTSYGISWVRQAPGQGLEWLGWISGFNGRTDYTEKLQDRITMTTDRSSSTAYMELRSLRYDDTAVYYCARDGLEKLGDYWGQGTLVTVSS
VL: not shown
B6: H1H29171P2 (antibody, V domains shown)
VH: QVQLVESGGGVVQPGRSLRLSCAASGFTFSSYGMHWVRQAPGKGLEWVAVISYDGSNKYYADSVKGRFTISRDNSKNTLYLQMNSLRAEDTAVYYCAKDDWNYDAFDIWGQGTMVTVSS
VL: not shown
B7: H1H29125P (antibody, V domains shown)
VH: QVQLVESGGGVVQPGRSLRLSCAASGFTFSSYGMHWVRQAPGKGLEWMAVISYDGSNKYYADSVKGRFTISRDNSKNTLFLQMNSLRPEDTAVYYCAQDGSSAIYYFYGMDVWGQGTTVTVSS
VL: DIQMTQSPSSLSASIGDRVTITCRASQDINNYLAWFQQKPGKAPKSLIYAASSLQSGVPSKFSGSGSGTDFTLTISSLQPEDFATYYCLQYNSYHPTFGQGTKLEIKR
B8: H1H29106P (antibody, V domains shown)
VH: QVQLVESGGGVVQSGRSLRLSCAASSFTFSSYGMHWVRQSPGKGLEWVAVISYDGSNKYYGDFVRGRFTISRDNSKNTLYLQMNSLRAEDTAMYYCAREVRRYYYYGMDVWGQGTTVTVSS
VL: not shown
B9: H1H29151P2 (antibody, V domains shown)
VH: QVQLVESGGGLVKPGGSLRLSCAASGFTFSDYYMNWVRQAPGKGLEWVSYISNSGNTQYYADSVKGRFTISRDNAKNSLFLQMNSLRAEDTAVYYCTREGLEYSSSEPFDYWGQGTLVTVSS
VL: not shown
B10: H1H29166P2 (antibody, V domains shown)
VH: EVQLVESGGGLLQPGRSLRLSCVASGFTFDDYAMHWVRQAPGKGLEWVSGISWNSESIGYADSVRGRFTISRDNAKNSLYLQMNSLRAEDTALYYCAKAPYSGTYFEYFRHWGQGTLVTVSS
VL: not shown
B11: H1H29146P2 (antibody, V domains shown)
VH: EVQLVESGGGLVQPGGSLQLSCAASGFAFSDSAIYWVRQASGKGLEWVGRIRNKANRFATAYGASVKGRFSIHRDDSKNTAYLQMNSLKTEDTAVYYCARHGHDTLTEGYGMDVWGQGTTVTVSS
VL: not shown
B12: H1H29109P (antibody, V domains shown)
VH: EVQLVESGGGLVQPGRSLRLSCAVSGFTFDDYAMHWVRQAPGKGLEWVSGISWNSGDIDYADSVKGRFTISRDNAKNSLYLQMNSLRAEDTALYYCAKDTLSGTGTTWYYFDYWGQGTLVTVSS
VL: DIQLTQSPSFLSASVGDRVTITCWASQGISSYLIWYQQKPGKAPKLLIYAASTLQSGVPSRFSGSGSGTEFTLTISSLQPEDFATYYCQQVNSYPLTFGGGTKVEIKR
B13: H1H29094P (antibody, V domains shown)
VH: not shown
VL: DIQMTQSPSSLSASVGDRVTITCQASQDINRDLNWYQQKSGKGPKLLIYDASNLETGVPSRFSGNRFGTDFTFTISRLQPEDIATYFCQQYKNLPYTFGQGTKLEIKR
B14: H1H29141P (antibody, V domains shown)
VH: QVQLVESGGGVVQPGRSLRLSCAASGFTFSSYGMHWVRQAPGKGLEWVTFISFDERNKYYADSVKGRFTISRDNSKNTLYLQMNSLRAEDTAMYYCASEVGYSFGHDAFDIWGQGTMVTVSS
VL: not shown

Experiments:
Test in all cases: cell-based or functional assay
[1] = biological target: PfRH5 from Plasmodium falciparum strain FCR-1/FVO (Plasmodium falciparum)
[2] = biological target: PfRH5 from Plasmodium falciparum strain RF7 (Plasmodium falciparum)
[3] = biological target: PfRH5 from Plasmodium falciparum strain W2-mef (Plasmodium falciparum)
[4] = biological target: PfRH5 from Plasmodium falciparum strain D10 (Plasmodium falciparum)
[5] = biological target: PfRH5 from Plasmodium falciparum strain Cam3.II (Plasmodium falciparum)
[6] = biological target: T1, PfRH5 from Plasmodium falciparum strain …
[7] = biological target: PfRH5 from Plasmodium falciparum strain HB3 (Plasmodium falciparum)
[8] = biological target: PfRH5 from Plasmodium falciparum strain Dd2 (Plasmodium falciparum)
[9] = biological target: PfRH5 from Plasmodium falciparum strain 7G8 (Plasmodium falciparum)

Binder	Max growth inhibition (%) [1] [%]	Max growth inhibition (%) [2] [%]	Max growth inhibition (%) [3] [%]	Max growth inhibition (%) [4] [%]	Max growth inhibition (%) [5] [%]	Max growth inhibition (%) [6] [%]	Max growth inhibition (%) [7] [%]	Max growth inhibition (%) [8] [%]	Max growth inhibition (%) [9] [%]
B1	58	14.7	42.8	66	36.2	44.1	40		
B2	84.1	51.4	66.4	57.1	48.7	58.5	51.4	74.4	57.4
B3	49	-2.99	22.9	62.5	33.4	24.2	40.9	13.5	34.1
B4	64.5	10.7	63.7		46.7	55.6	56.5	61.2	62.6
B5	16.1	-6.27	-0.55	6.79	8.66	5.68	4.92	0.68	17.8
B6	11.7	-12.5	0.74	10.6	5.45	4.04	0.52	7.71	17
B7	67.6	21	64.6	75.4	42.7	51.1		51.4	47
B8	54.3	27.4	48.9	74.9	51.7	58	48.4	54	55.5
B9	53.7	18.3	53.9	38.7	26.3	35.5	31.7	58	47.5
B10	69.7	19.4	61.9	70.9	55.9	53.1	54.9	60	54.6
B11	7.32	5.97	0.57	10.8	8.18	8.57	33.9		19.1
B12	56.7	8.24	37.9	44.8	35.9	32.2	32.2	42	39
B13	51.2	15.2	34.9	35.9	26.2	14.4	45.4	41.6	29.9
B14	74.2	32.1	56.2	50	49.3	48.2	50	65.3	54.6
